Laboratory results from patent CN112159477A (UNIV SHANGHAI MEDICAL & HEALTH SCIENCES, dated 2021).

Assays:
rhMICA-His蛋白 [1] = target: T1, rhMICA-His蛋白 (human, UniProt Q29983 24-308); assay: BLI (Fortebio Octet Red96), rhNKG2D-Fc captured on AHC sensor, rhMICA-His as analyte
T1 construct: Control protein; also called MICA蛋白; not shown: His tag
T1 sequence (looked up): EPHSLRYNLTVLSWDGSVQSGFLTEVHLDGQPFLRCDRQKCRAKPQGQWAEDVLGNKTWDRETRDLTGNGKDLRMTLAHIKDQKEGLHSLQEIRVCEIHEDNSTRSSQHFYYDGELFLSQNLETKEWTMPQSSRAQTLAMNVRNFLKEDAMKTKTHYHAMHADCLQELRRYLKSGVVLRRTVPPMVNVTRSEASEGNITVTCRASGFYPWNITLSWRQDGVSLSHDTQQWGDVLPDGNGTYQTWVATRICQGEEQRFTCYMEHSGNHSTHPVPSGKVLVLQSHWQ

rhMICA-His蛋白 [2] = target: T1, rhMICA-His蛋白; assay: BLI (Fortebio Octet Red96), rhNKG2D-Fc captured on AHC sensor, rhMICA-His 1.23-11.1 nM as analyte

koff (rhMICA-His蛋白 [1]): 0.0015 s⁻¹ | kon (rhMICA-His蛋白 [1]): 1.19e+06 M⁻¹ s⁻¹ | Kd (rhMICA-His蛋白 [2]): 1.26 nM
B1: rhNKG2D-Fc蛋白 (Fc fusion, human, UniProt P26718 78-216, looked up)
chain: FLNSLFNQEVQIPLTESYCGPCPKNWICYKNNCYQFFDESKNWYESQASCMSQNASLLKVYSKEDQDLLKLVKSYHWMGLVHIPTNGSWQWEDGSILSPNLLTIIEMQKGDCALYASSFKGYIENCSTPNTYICMQRTV
notes: the order of the parts follows the printed name only; not shown: Fc part (captured by an anti-human IgG Fc sensor)
